What follows are binders tested against tissue factor reagent of the Tissue Factor Activity Assay Kit (Abcam #ab108906) (UniProt P13726 33-295, limits assumed) (assay: cell-based or functional assay).
Sequence of tissue factor reagent of the Tissue Factor Activity Assay Kit (Abcam #ab108906) (P13726 33-295 limits assumed): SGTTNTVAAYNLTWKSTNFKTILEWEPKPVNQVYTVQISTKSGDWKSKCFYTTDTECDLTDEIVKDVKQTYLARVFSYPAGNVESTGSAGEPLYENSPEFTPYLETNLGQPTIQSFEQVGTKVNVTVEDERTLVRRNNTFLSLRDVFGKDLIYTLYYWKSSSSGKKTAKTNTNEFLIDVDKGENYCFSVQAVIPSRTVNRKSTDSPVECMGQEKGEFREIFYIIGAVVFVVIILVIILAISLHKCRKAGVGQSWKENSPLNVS

Binder	FX conversion (% inhibition), 1000 nM antibody
SRP2900-A11 (antibody, IgG1, V domains shown) VH: EVQLVESGGGLVQPGGSLRLSCAASGFTITDYVIHWVRQAPGKGLEWVGYIDPSNGYTYYADSVKGRFTISADTSKNTAYLQMNSLRAEDTAVYYCARDDQSFTSPFDYWGQGTLVTVSS VL: not shown	31.7%
SRP2900-D06 (antibody, IgG1, V domains shown) VH: EVQLVESGGGLVQPGGSLRLSCAASGFTISDYWIHWVRQAPGKGLEWVGYIDPQNGWTYYADSVKGRFTISADTSKNTAYLQMNSLRAEDTAVYYCARDYGSLTINLDYWGQGTLVTVSS VL: not shown	46.2%
SRP2900-E01 (antibody, IgG1, V domains shown) VH: EVQLVESGGGLVQPGGSLRLSCAASGFTISDYWIHWVRQAPGKGLEWVGYIDPSNGYTYYADSVKGRFTISADTSKNTAYLQMNSLRAEDTAVYYCARDYGSLQVFIDYWGQGTLVTVSS VL: not shown	40.4%
SRP2900-D07 (antibody, IgG1, V domains shown) VH: EVQLVESGGGLVQPGGSLRLSCAASGFTISDYWIHWVRQAPGKGLEWVGYIDPSNGYTYYADSVKGRFTISADTSRNTAYLQMNSLRAEDTAVYYCARDYGSLEVSLDYWGQGTLVTVSS VL: not shown	47.4%
SRP2900-D08 (antibody, IgG1, V domains shown) VH: EVQLVESGGGLVQPGGSLRLSCAASGFTISDYWIHWVRQAPGKGLEWVGYIDPYNGYTYYADSVKGRFTISADTSKNTAYLQMNSLRAEDTAVYYCARDYGSLEVSLDYWGQGTLVTVSS VL: not shown	44.9%
SRP2900-A08 (antibody, IgG1, V domains shown) VH: EVQLVESGGGLVQPGGSLRLSCAASGFTLTGYWIHWVRQAPGKGLEWVGYIDPYNGATYYADSVKGRFTISADTSKNTAYLQMNSLRAEDTAVYYCARADYYYVDEYWDYWGQGTLVTVSS VL: not shown	41.9%
SRP2900-B05 (antibody, IgG1, V domains shown) VH: EVQLVESGGGLVQPGGSLRLSCAASGFTISGYWIHWVRQAPGKGLEWVGYIDPYNGATYYADSVKGRFTISADTSKNTAYLQMNSLRAEDTAVYYCARADYYGVDEFLDYWGQGTLVTVSS VL: not shown	35.5%
SRP2900-C05 (antibody, IgG1, V domains shown) VH: EVQLVESGGGLVQPGGSLRLSCAASGFTISGYWIHWVRQAPGKGLEWVGYIDPYNGATYYADSVKGRFTISADTPKNTAYLQMNSLRAEDTAVYYCARADYHGVDEYWDYWGQGTLVTVSS VL: not shown	35.7%
SRP2900-A01 (antibody, IgG1, V domains shown) VH: EVQLVESGGGLVQPGGSLRLSCAASGFTISSYWIHWVRQAPGKGLKWVGYIDPYNGATYYADSVKGRFTISADTSKNTAYLQMNSLRAEDTAVYYCARADYYYVDEYFDYWGQGTLVTVSS VL: not shown	37%
SRP2900-B01 (antibody, IgG1, V domains shown) VH: EVQLVESGGGLVQPGGSLRLSCAASGFTISGYWIHWVRQAPGKGLEWVGYIDPYNGATYYADSVKGRFTISADTSKNTAYLQMNSLRAEDTAVYYCARADYYYVDEYLDYWGQGTLVTVSS VL: not shown	38.7%
SRP2900-B11 (antibody, IgG1, V domains shown) VH: EVQLVESGGGLVQPGGSLRLSCAASGFTIPAYWIHWVRQAPGKGLEWVGYIDPSNGYTYYADSVKGRFTISADASKNTAYLQMNSLRAEDTAAYYCARADYHGVDEYWDYWGQGTLVTVSS VL: not shown	22.4%
SRP2900-B06 (antibody, IgG1, V domains shown) VH: EVQLVESGGGLVQPGGSLRLSCAASGFTIPSYWIHWVRQAPGKGLEWVGYIDPYNGATYYADSVKGRFTISADTSKNTAYLQMNSLRAEDTAVYYCARADYHGVDEYWDYWGQGTLVTVSS VL: not shown	28.2%
SRP2900-C04 (antibody, IgG1, V domains shown) VH: EVQLVESGGGLVQPGGSLRLSCAASGFTIVSYWIHWVRQAPGKGLEWVGYIDPYNGATYYADSVKGRFTISADTSKNTAYLQMNSLRAEDTAVYYCARADYYYVDEYWDYWGQGTLVTVSS VL: not shown	36.7%
SRP2900-A09 (antibody, IgG1, V domains shown) VH: EVQLVESGGGLVQPGGSLRLSCAASGFTIADYWIHWVRQAPGKGLEWVGYIDPYNGATYYADSVKGRFTISADTSKNTAYLQMNSLRAEDTAVYYCARADYYYVDEYWDYWGQGTLVTVSS VL: not shown	46.9%
SRP2900-B10 (antibody, IgG1, V domains shown) VH: EVQLVESGGGLVQPGGSLRLSCAASGFTIPAYWIHWVRQAPGKGLEWVGYIDPYNGSTYYADSVKGRFTISADTSKNTAYLQMNSLRAEDTAVYYCARADYYYVDEYWDYWGQGTLVTVSS VL: not shown	33.3%
SRP2900-C07 (antibody, IgG1, V domains shown) VH: EVQLVESGGGLVQPGGSLRLSCAASGFTISGYWIHWVRQAPGKGLEWVGYIDPYNGATYYADSVKGRFTISADTSKNTAYLQMNSLRAEDTAVYYCARADYYYVDEYFDYWGQGTLVTVSS VL: not shown	41.6%

Binder	FX conversion (% inhibition), 1000 nM antibody
SRP2900-B03 (antibody, IgG1, V domains shown) VH: EVQLVESGGGLVQPGGSLRLSCSASGFTIADYWIHWVRQAPGKGLEWVGYIDPYNGATYYADSVKGRFTISADTSKNTAYLQMNSLRAEDTAVYYCARADYYYVDEYWDYWGQGTLVTVSS VL: not shown	44.1%
SRP2900-B07 (antibody, IgG1, V domains shown) VH: EVQLVESGGGLVQPGGSLRLSCAASGFTIADYWIHWVRQAPGKGLEWVGFIDPYNGYTGYADSVKGRFTISADNSKNTAYLQMNSLRAEDTAVYYCARADYHGVDEYWDYWGQGTLVTVSS VL: not shown	42.2%
SRP2900-B09 (antibody, IgG1, V domains shown) VH: EVQLVESGGGLVQPGGSLRLSCAASGFTISQYWIHWVRQAPGKGLEWVGFIDPYNGYTNYADSVKGRFTISADTSENTAYLQMNSLRAEDTAVYYCARADYYYVDEYWDYWGQGTLVTVSS VL: not shown	35%
SRP2900-C02 (antibody, IgG1, V domains shown) VH: EVQLVESGGGLVQPGGSLRLSCAASGFTISSYWIHWVRQAPGKGLEWVGYIDPYNGATYYADSVKGRFTISADTSKNTAYLQMNSLRAEDTAVYYCARADYYYVDEYWDYWGQGTLVTVSS VL: not shown	29.6%
SRP2900-B02 (antibody, IgG1, V domains shown) VH: EVQLVESGGGSVQPGGSLRLSCAASGFTISDYWIHWVRQAPGKGLEWVGYIDPYNGATYYADSVKGRFTISADTSKNTAYLQMNSLRAEDTAVYYCARADYYYVDEYWDYWGQGTLVTVSS VL: not shown	27%
SRP2900-B08 (antibody, IgG1, V domains shown) VH: EVQLVESGGGLVQPGGSLRLSCAASGFTIPSYWIHWVRQAPGKGLEWVGYIDPYNGYTYYADSVKGRFTISADTSKNTAYLQMNSLRAEDTAVYYCARADYYYVDEYFDYWGQGTLVTVSS VL: not shown	43.3%
SRP2900-B04 (antibody, IgG1, V domains shown) VH: EVQLVESGGGLVQPGGSLRLSCAASGFTISEYWIHWVRQAPGKGLEWVGFIDPYNGYTGYADSVRGRFTISADTSKNTAYLQMNSLRAEDTAVYYCARADYYYVDEYWDYWGQGTLVTVSS VL: not shown	46.3%
SRP2900-C10 (antibody, IgG1, V domains shown) VH: EVQLVESGGGLVQPGGSLRLSCAASGFTISDYWIHWVRQAPGKGLEWVGYIDPYNGYTYYADSVNGRFTISADTSKNTAYLQMNSLRAEDTAVYYCARDYGSYLVSLDYWGQGTLVTVSS VL: not shown	42.1%
SRP2900-D10 (antibody, IgG1, V domains shown) VH: EVQLVESGGGLVQPGGSLRLSCAASGFTISDYWIHWVRQAPGKGLEWVGFIDPKNGYTYYADSVKGRFTISAGTSKNTAYLQMNSLRAEDTAVYYCARDYGSLQVFIDYWGQGTLVTVSS VL: not shown	37%
SRP2900-D01 (antibody, IgG1, V domains shown) VH: EVQLVESGGGLVQPGGSLRLSCAASGFTIHEYWIHWVRQAPGKGLEWVGYIDPANGFTYYADSVKGRFTISADTSKNTAYLQMNSLRAEDTAVYYCARDYGSLQVFLDYWGQGTLVTVSS VL: not shown	32.7%
SRP2900-D02 (antibody, IgG1, V domains shown) VH: EVQLVESGGGLVQPGGSLRLSCAASGFTISDYWIHWVRQAPGKGLEWVGYIDPYNGYTYYADSVKGRFTISADTSKNTAYLQMNSLRAEDTAVYYCARDYGSLQVFIDHWGQGTLVTVSS VL: not shown	32.1%
SRP2900-D09 (antibody, IgG1, V domains shown) VH: EVQLVESGGGLVQPGGSLRLSCAASGFTISGYWIHWVRQAPGKGLEWVGYIDPANGFTYYADSVKGRFTISADTSKNTAYLQMNSLRAEDTAVYYCARDYGSIQVFLDYWGQGTLVTVSS VL: not shown	30%
SRP2900-D04 (antibody, IgG1, V domains shown) VH: EVQLVESGGGLVQPGGSLRLSCAASGFTISDYWIHWVRQAPGKGLEWVGFIDPYNGYTYHADSVEGRFTISADTSKNTAYLQMNSLRAEDTAVYYCARDYGSLQVQLDYWGQGTLVTVSS VL: not shown	46%
SRP2900-D11 (antibody, IgG1, V domains shown) VH: EVQLVESGGGLVQPGGSLRLSCAASGFTISDYWIHWVRQAPGKGLEWVGYIDPYNGYTYYADSVKGRFTISADTSKNTAYLQMNPLRAEDTAVYYCARDYGSLQVQLDYWGQGTLVTVSS VL: not shown	51.4%
SRP2900-D05 (antibody, IgG1, V domains shown) VH: EVQLVESGGGLVQPGGSLRLSCAASGFAIANYWIHWVRQAPGKGLEWVGYIDPYNGYTYYADSVKGRFTISADTSKNTAYLQMNSLRAEDTAVYYCARDYGSLEVSLDYWGQGTLVTVSS VL: not shown	33.6%
SRP2900-D03 (antibody, IgG1, V domains shown) VH: EVQLVESGGGLVQPGGSLRLSCAASGFTISQYWIHWVRQAPGKGLEWVGYIDPYNGYTYYADSVKGRFTISADTSKNTAYLQMNSLRAEDTAVYYCARDYGSLQVQLDYWGQGTLVTVSS VL: not shown	37.4%
